Results taken from PMC12578325.

Molecular target: Bluetongue virus serotype 1 (BTV-1) outer capsid protein VP2
Experiment: Co-IP with anti-NS3 antibody, densitometry of VP2 band
Details: parent: est. 1.0; read off a plot

| Substance | ratio to parent (relative fold change) |
| --- | --- |
| Bluetongue virus serotype 1 (BTV-1) non-structural glycoprotein NS3, wild type K196A; K197A; E198A | 0.56 |
| Bluetongue virus serotype 1 (BTV-1) non-structural glycoprotein NS3, wild type N150A | 0.61 |
